Experimental data taken from paper PMC3814363, “Tracking in atomic detail the functional specializations in viral RecA helicases that occur during evolution” (Nucleic Acids Research, 2013).

Key:
[1] = biological target: ɸ13 P4 (full-length packaging NTPase P4 of bacteriophage ɸ13) (bacteriophage ɸ13); assay: crystal structure; ɸ13 P4 crystals grown at 20°C from 12 mg/ml protein; 100 mM Tris–HCl pH 7.0, 900 mM trisodium citrate, 200 mM NaCl; apo form; hexamer
[2] = biological target: ɸ8 P4Δ281 (C-terminally truncated ɸ8 P4, missing residues 281–321) (bacteriophage ɸ8); assay: crystal structure; ɸ8 P4Δ281 crystals from 5 mg/ml protein; 100 mM Tris pH 8.0, 18% PEG 1000; hexamer
[3] = biological target: ɸ8 P4 (full-length packaging NTPase P4 of bacteriophage ɸ8) (bacteriophage ɸ8); assay: crystal structure; ɸ8 P4 crystals grown at 24°C; 100 mM sodium acetate pH 4.6, […] ammonium sulphate, DTT; protein 3 mg/ml; apo form; hexamer
[4] = biological target: T1, ɸ12 P4 (Pseudomonas phage phi12, UniProt Q94M05); assay: X-ray crystal structure, […] Å; type: binding; conditions: 5 mM UTP, pH 4.8; nucleotide site; competitive with ATP, not hydrolysed
T1 construct: gene 4; plasmid pPG27 (template for mutants), E. coli BL21(DE3) or B834(DE3); hexamer

[5] = biological target: the molecule itself; assay: crystal structure; ɸ6 P4Δ310 crystals grown at 24°C from 3.5 mg/ml protein in 20 mM HEPES pH 8.0, 5 mM MgCl2, 2 mM CaCl2, 5 mM ADP, 100 mM NaCl; reservoir 6% PEG 4000, 90 mM sodium acetate pH 4.5; ADP bound; hexamer
[6] = biological target: the molecule itself; assay: not stated; quaternary structure of purified ɸ12 P4 mutants as listed in Table 1; method not given
[7] = biological target: the molecule itself; assay: crystal structure; wild-type ɸ12 P4 crystals; 10% PEG 1500, 100 mM sodium acetate pH 4.8, 5 mM UTP; hexamer

## ɸ13 P4 (full-length packaging NTPase P4 of bacteriophage ɸ13) (enzyme)
[1]
  stoichiometry N: 6

## ɸ8 P4Δ281 (C-terminally truncated ɸ8 P4, missing residues 281–321) (domain or fragment)
[2]
  stoichiometry N: 6

## ɸ8 P4 (full-length packaging NTPase P4 of bacteriophage ɸ8) (enzyme)
[3]
  stoichiometry N: 6

## O=c1ccn([C@@H]2O[C@H](COP(=O)(O)OP(=O)(O)OP(=O)(O)O)[C@@H](O)[C@H]2O)c(=O)[nH]1 [UTP]
[4]
  X-ray crystal structure, 1.9 Å: pyrimidine triphosphates can bind the hexamer without being hydrolysed

B1: ɸ6 P4Δ310 (C-terminally truncated packaging NTPase P4 of bacteriophage ɸ6, missing residues 310–331) (domain or fragment, UniProt P11125 1-309, looked up)
chain: MPIVVTQAHIDRVGIAADLLDASPVSLQVLGRPTAINTVVIKTYIAAVMELASKQGGSLAGVDIRPSVLLKDTAIFTKPKAKSADVESDVDVLDTGIYSVPGLARKPVTHRWPSEGIYSGVTALMGATGSGKSITLNEKLRPDVLIRWGEVAEAYDELDTAVHISTLDEMLIVCIGLGALGFNVAVDSVRPLLFRLKGAASAGGIVAVFYSLLTDISNLFTQYDCSVVMVVNPMVDAEKIEYVFGQVMASTVGAILCADGNVSRTMFRTNKGRIFNGAAPLAADTHMPSMDRPTSMKALDHTSIASVAP
notes: packaging NTPase P4 of bacteriophage ɸ6, C-terminally truncated, missing residues 310–331; expressed from plasmid pJTJ7.3/7; Crystallised with ADP, Mg2+ and Ca2+; source: E. coli BL21(DE3) or B834(DE3), purified (Heparin, Q-sepharose, Superdex 200)
[5]
  stoichiometry N: 6

B2: ɸ12 P4 ΔTTS202-204 (enzyme, bacteriophage ɸ12)
chain: MIHLYDAKSFAKLRAAQYAAFHTDAPGSWFDHTSGVLESVEDGTPVLAIGVESGDAIVFDKNAQRIVAYKEKSVKAEDGSVSVVQVENGFMKQGHRGWLVDLTGELVGCSPVVAEFGGHRYASGMVIVTGKGNSGKTPLVHALGEALGGKDKYATVRFGEPLSGYNTDFNVFVDDIARAMLQHRVIVIDSLKNVIGAAGGNGGISRGAFDLLSDIGAMAASRGCVVIASLNPTSNDDKIVELVKEASRSNSTSLVISTDVDGEWQVLTRTGEGLQRLTHTLQTSYGEHSVLTIHTSKQSGGKQASGKAIQTVIKNDELESVLRRLTSN
notes: packaging NTPase P4 of bacteriophage ɸ12 (gene 4) with the L1 loop central residues T202-T203-S204 deleted; made from plasmid pPG27, plasmid pDK249; also called ɸ12 ΔTTS202-204; source: E. coli BL21(DE3) or B834(DE3), purified (Heparin, Q-sepharose, Superdex 200)
[6]
  stoichiometry N: 6

B3: ɸ12 P4 Y288A (enzyme, bacteriophage ɸ12)
chain: MIHLYDAKSFAKLRAAQYAAFHTDAPGSWFDHTSGVLESVEDGTPVLAIGVESGDAIVFDKNAQRIVAYKEKSVKAEDGSVSVVQVENGFMKQGHRGWLVDLTGELVGCSPVVAEFGGHRYASGMVIVTGKGNSGKTPLVHALGEALGGKDKYATVRFGEPLSGYNTDFNVFVDDIARAMLQHRVIVIDSLKNVIGAAGGNTTSGGISRGAFDLLSDIGAMAASRGCVVIASLNPTSNDDKIVELVKEASRSNSTSLVISTDVDGEWQVLTRTGEGLQRLTHTLQTSAGEHSVLTIHTSKQSGGKQASGKAIQTVIKNDELESVLRRLTSN
notes: packaging NTPase P4 of bacteriophage ɸ12 (gene 4) with Y288A; made from plasmid pPG27, plasmid pDK29; also called ɸ12 Y288A; source: E. coli BL21(DE3) or B834(DE3), purified (Heparin, Q-sepharose, Superdex 200)
[6]
  stoichiometry N: 6

B4: ɸ12 P4-Q278A (enzyme)
chain: MIHLYDAKSFAKLRAAQYAAFHTDAPGSWFDHTSGVLESVEDGTPVLAIGVESGDAIVFDKNAQRIVAYKEKSVKAEDGSVSVVQVENGFMKQGHRGWLVDLTGELVGCSPVVAEFGGHRYASGMVIVTGKGNSGKTPLVHALGEALGGKDKYATVRFGEPLSGYNTDFNVFVDDIARAMLQHRVIVIDSLKNVIGAAGGNTTSGGISRGAFDLLSDIGAMAASRGCVVIASLNPTSNDDKIVELVKEASRSNSTSLVISTDVDGEWQVLTRTGEGLARLTHTLQTSYGEHSVLTIHTSKQSGGKQASGKAIQTVIKNDELESVLRRLTSN
notes: packaging NTPase P4 of bacteriophage ɸ12 (gene 4) with Q278A; made from plasmid pPG27, plasmid pDK30; Crystallised with 5 mM AMPcPP; also called ɸ12 Q278A; Q278A mutant; source: E. coli BL21(DE3) or B834(DE3), purified (Heparin, Q-sepharose, Superdex 200)
[6]
  stoichiometry N: 6

B5: wild-type ɸ12 P4 (packaging NTPase P4 of bacteriophage ɸ12) (enzyme)
chain: MIHLYDAKSFAKLRAAQYAAFHTDAPGSWFDHTSGVLESVEDGTPVLAIGVESGDAIVFDKNAQRIVAYKEKSVKAEDGSVSVVQVENGFMKQGHRGWLVDLTGELVGCSPVVAEFGGHRYASGMVIVTGKGNSGKTPLVHALGEALGGKDKYATVRFGEPLSGYNTDFNVFVDDIARAMLQHRVIVIDSLKNVIGAAGGNTTSGGISRGAFDLLSDIGAMAASRGCVVIASLNPTSNDDKIVELVKEASRSNSTSLVISTDVDGEWQVLTRTGEGLQRLTHTLQTSYGEHSVLTIHTSKQSGGKQASGKAIQTVIKNDELESVLRRLTSN
notes: packaging NTPase P4 of bacteriophage ɸ12 (gene 4), wild type; plasmid pPG27; Crystallised here with 5 mM UTP; also called P4 ɸ12; source: E. coli BL21(DE3) or B834(DE3), purified (Heparin, Q-sepharose, Superdex 200)
[7]
  stoichiometry N: 6

B6: ɸ12 P4-S292A (enzyme)
chain: MIHLYDAKSFAKLRAAQYAAFHTDAPGSWFDHTSGVLESVEDGTPVLAIGVESGDAIVFDKNAQRIVAYKEKSVKAEDGSVSVVQVENGFMKQGHRGWLVDLTGELVGCSPVVAEFGGHRYASGMVIVTGKGNSGKTPLVHALGEALGGKDKYATVRFGEPLSGYNTDFNVFVDDIARAMLQHRVIVIDSLKNVIGAAGGNTTSGGISRGAFDLLSDIGAMAASRGCVVIASLNPTSNDDKIVELVKEASRSNSTSLVISTDVDGEWQVLTRTGEGLQRLTHTLQTSYGEHAVLTIHTSKQSGGKQASGKAIQTVIKNDELESVLRRLTSN
notes: packaging NTPase P4 of bacteriophage ɸ12 (gene 4) with S292A; made from plasmid pPG27, plasmid pDK31; Crystallised with 5 mM AMPcPP; also called ɸ12 S292A; S292A mutant; source: E. coli BL21(DE3) or B834(DE3), purified (Heparin, Q-sepharose, Superdex 200)
[6]
  stoichiometry N: 6

B7: ɸ12 P4 TTS202-204LKK (enzyme, bacteriophage ɸ12)
chain: MIHLYDAKSFAKLRAAQYAAFHTDAPGSWFDHTSGVLESVEDGTPVLAIGVESGDAIVFDKNAQRIVAYKEKSVKAEDGSVSVVQVENGFMKQGHRGWLVDLTGELVGCSPVVAEFGGHRYASGMVIVTGKGNSGKTPLVHALGEALGGKDKYATVRFGEPLSGYNTDFNVFVDDIARAMLQHRVIVIDSLKNVIGAAGGNLKKGGISRGAFDLLSDIGAMAASRGCVVIASLNPTSNDDKIVELVKEASRSNSTSLVISTDVDGEWQVLTRTGEGLQRLTHTLQTSYGEHSVLTIHTSKQSGGKQASGKAIQTVIKNDELESVLRRLTSN
notes: packaging NTPase P4 of bacteriophage ɸ12 (gene 4) with LKK instead of TTS (residues 202–204); cloned in the pT7-7 vector at NdeI-EcoRI sites; also called ɸ12 TTS202-204LKK; source: E. coli BL21(DE3) or B834(DE3), purified (Heparin, Q-sepharose, Superdex 200)
[6]
  stoichiometry N: 6
